Measurements as given in patent publication US20250043302A1, “MUTATED HYDROXYPHENYLPYRUVATE DIOXYGENASE POLYPEPTIDE, AND CODING GENE AND USE THEREOF” (BEIJING DABEINONG BIOTECHNOLOGY CO., LTD., priority 2021, published 2025).

Experiments:
Format in all cases: in vivo
[1] = tested on: Arabidopsis thaliana T1 plants; test: Isoxaflutole tolerance of transgenic Arabidopsis thaliana T1 plants (spray, bleached leaf area grade, damage score); settings: Table 11; for Classification and statistics of the grade of pesticide damage Grade 0: number of plants at grade 0; for Classification and statistics of the grade of pesticide damage Grade 1: number of plants at grade 1; for Classification and statistics of the grade of pesticide damage Grade 2: number of plants at grade 2; for Classification and statistics of the grade of pesticide damage Grade 3: number of plants at grade 3; for Scores: pesticide damage score;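 on Scores: Weighted damage index from 0 to 100 where higher means more damage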
In short: (§1)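 Read-out: per-plant damage grade 0–3 from proportion of bleached leaf area at 7 DAT (1 <50%, 2 >50%, 3 100%). Plants were T1 transformants, glufosinate-selected, plus wild-type CK, sprayed 18 days post-sowing. Rates: topramezone 25–200, isoxaflutole 35–280, mesotrione 52.5–420 g ai/ha.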

[2] = tested on: Arabidopsis thaliana T1 plants; test: Topramezone tolerance of transgenic Arabidopsis thaliana T1 plants (spray, bleached leaf area grade, damage score); settings: Table 10; for Classification and statistics of the grade of pesticide damage Grade 0: number of plants at grade 0; for Classification and statistics of the grade of pesticide damage Grade 1: number of plants at grade 1; for Classification and statistics of the grade of pesticide damage Grade 2: number of plants at grade 2; for Classification and statistics of the grade of pesticide damage Grade 3: number of plants at grade 3; for Scores: pesticide damage score
In short: as §1

[3] = tested on: Arabidopsis thaliana T1 plants; test: Mesotrione tolerance of transgenic Arabidopsis thaliana T1 plants (spray, bleached leaf area grade, damage score); set-up: Scores: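 damage score 0-100 computed as Σ(N×S)/(T×M)×100 over grades 0-3 with higher meaning more damage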; settings: Table 12; for Classification and statistics of the grade of pesticide damage Grade 0: number of plants at grade 0; for Classification and statistics of the grade of pesticide damage Grade 1: number of plants at grade 1; for Classification and statistics of the grade of pesticide damage Grade 2: number of plants at grade 2; for Classification and statistics of the grade of pesticide damage Grade 3: number of plants at grade 3; for Scores: pesticide damage score
In short: as §1

B1: HPPDm-6-02: nucleotide sequence encoding Avena sativa HPPD with A106G+K351N+F372A+F383W; vector DBN11787 (nucleic acid)
DNA: ATGCCACCTACTCCAGCTACAGCTACTGGTGCTGCTGCTGCTGCCGTTACTCCTGAGCACGCTGCCAGGTCATTCCCCAGGGTGGTTCGCGTGAACCCCAGATCTGATAGGTTCCCAGTTCTGAGCTTCCACCATGTTGAGCTGTGGTGCGCTGATGCTGCTTCTGCTGCTGGCAGGTTCTCTTTCGCTCTTGGTGCTCCACTCGCTGCTAGATCTGATCTGTCTACAGGAAATAGCGCTCATGCCTCACTCCTGCTTCGCTCAGGTGCTTTGGCCTTCCTCTTCACCGCTCCATATGCTCCCCCACCTCAGGAGGGTGCTACTGCTGCTGCTACAGCCTCCATTCCAAGCTTCTCAGCTGATGCCGCTAGAACCTTCGCTGCTGCTCATGGACTTGCCGTGAGGTCTGTTGGTGTTCGCGTGGCTGATGCTGCTGAGGCTTTCAGAGTTTCCGTTGCCGGCGGAGCTAGGCCAGCTTTCGCTCCTGCTGATTTGGGACATGGTTTCGGCCTGGCTGAGGTTGAGCTTTACGGTGACGTGGTTCTCCGCTTCGTGTCTTACCCAGATGAGACTGACCTGCCTTTCCTTCCCGGCTTCGAGAGAGTTTCCTCTCCTGGTGCCGTGGATTACGGCCTGACAAGGTTCGACCACGTGGTTGGAAACGTTCCCGAGATGGCTCCAGTGATCGATTACATGAAGGGCTTCCTTGGATTCCATGAGTTCGCCGAGTTCACTGCTGAGGACGTGGGAACCACTGAGTCCGGTTTGAACTCTGTGGTTCTCGCCAACAATTCTGAGGCTGTTTTGCTCCCTCTGAATGAGCCTGTGCATGGAACCAAGAGGAGAAGCCAGATTCAAACTTACCTGGAGTACCACGGTGGCCCTGGAGTTCAGCATATCGCCCTTGCTTCTAATGATGTGTTGCGCACACTCAGAGAGATGCGCGCCAGAACCCCCATGGGAGGTTTCGAGTTCATGGCCCCACCACAGGCTAAGTACTACGAGGGCGTTAGAAGGATTGCTGGAGACGTGTTGAGCGAGGAGCAGATCAATGAGTGCCAAGAGCTGGGTGTTCTTGTGGATAGGGATGACCAGGGCGTTCTGCTTCAAATTGCCACTAAGCCAGTGGGCGACCGCCCTACATTCTGGCTTGAGATGATTCAAAGAATCGGCTGCATGGAGAAGGATGAGGTTGGACAGGAGTACCAAAAGGGCGGATGCGGTGGCTTCGGAAAGGGTAACTTCAGCGAGTTGTTCAAGTCAATCGAGGACTACGAGAAGAGCCTCGAGGTGAAGCAGTCAGTGGTTGCCCAAAAGTCCTGA
modifications: HPPDm-6-02 Nucleotide Sequence
notes: vector DBN11787
Resistance evaluation ([1]; isoxaflutole 140 g ai/ha (2×)): Highly resistant | Classification and statistics of the grade of pesticide damage Grade 0 ([1]; isoxaflutole 140 g ai/ha (2×)): 16 | Classification and statistics of the grade of pesticide damage Grade 1 ([1]; isoxaflutole 140 g ai/ha (2×)): 0 | Classification and statistics of the grade of pesticide damage Grade 2 ([1]; isoxaflutole 140 g ai/ha (2×)): 0 | Classification and statistics of the grade of pesticide damage Grade 3 ([1]; isoxaflutole 140 g ai/ha (2×)): 0 | Scores ([1]; isoxaflutole 140 g ai/ha (2×)): 0 | Resistance evaluation ([1]; isoxaflutole 280 g ai/ha (4×)): Highly resistant | Classification and statistics of the grade of pesticide damage Grade 0 ([1]; isoxaflutole 280 g ai/ha (4×)): 13 | Classification and statistics of the grade of pesticide damage Grade 1 ([1]; isoxaflutole 280 g ai/ha (4×)): 3 | Classification and statistics of the grade of pesticide damage Grade 2 ([1]; isoxaflutole 280 g ai/ha (4×)): 0 | Classification and statistics of the grade of pesticide damage Grade 3 ([1]; isoxaflutole 280 g ai/ha (4×)): 0 | Scores ([1]; isoxaflutole 280 g ai/ha (4×)): 6 | Resistance evaluation ([2]; topramezone 100 g ai/ha (4×)): Highly resistant | Classification and statistics of the grade of pesticide damage Grade 0 ([2]; topramezone 100 g ai/ha (4×)): 16 | Classification and statistics of the grade of pesticide damage Grade 1 ([2]; topramezone 100 g ai/ha (4×)): 0 | Classification and statistics of the grade of pesticide damage Grade 2 ([2]; topramezone 100 g ai/ha (4×)): 0 | Classification and statistics of the grade of pesticide damage Grade 3 ([2]; topramezone 100 g ai/ha (4×)): 0 | Scores ([2]; topramezone 100 g ai/ha (4×)): 0 | Resistance evaluation ([2]; topramezone 200 g ai/ha (8×)): Highly resistant | Classification and statistics of the grade of pesticide damage Grade 0 ([2]; topramezone 200 g ai/ha (8×)): 16 | Classification and statistics of the grade of pesticide damage Grade 1 ([2]; topramezone 200 g ai/ha (8×)): 0 | Classification and statistics of the grade of pesticide damage Grade 2 ([2]; topramezone 200 g ai/ha (8×)): 0 | Classification and statistics of the grade of pesticide damage Grade 3 ([2]; topramezone 200 g ai/ha (8×)): 0 | Scores ([2]; topramezone 200 g ai/ha (8×)): 0 | Resistance evaluation ([3]; mesotrione 210 g ai/ha (2×)): Highly resistant | Classification and statistics of the grade of pesticide damage Grade 0 ([3]; mesotrione 210 g ai/ha (2×)): 16 | Classification and statistics of the grade of pesticide damage Grade 1 ([3]; mesotrione 210 g ai/ha (2×)): 0 | Classification and statistics of the grade of pesticide damage Grade 2 ([3]; mesotrione 210 g ai/ha (2×)): 0 | Classification and statistics of the grade of pesticide damage Grade 3 ([3]; mesotrione 210 g ai/ha (2×)): 0 | Scores ([3]; mesotrione 210 g ai/ha (2×)): 0 | Resistance evaluation ([3]; mesotrione 420 g ai/ha (4×)): Highly resistant | Classification and statistics of the grade of pesticide damage Grade 0 ([3]; mesotrione 420 g ai/ha (4×)): 16 | Classification and statistics of the grade of pesticide damage Grade 1 ([3]; mesotrione 420 g ai/ha (4×)): 0 | Classification and statistics of the grade of pesticide damage Grade 2 ([3]; mesotrione 420 g ai/ha (4×)): 0 | Classification and statistics of the grade of pesticide damage Grade 3 ([3]; mesotrione 420 g ai/ha (4×)): 0 | Scores ([3]; mesotrione 420 g ai/ha (4×)): 0
